Data taken from the supplement of paper PMC10567573.

B1: ETS2 (parent)
chain: TSGKRYVYRFVCDLQNLLGFTPEE

Variants of: B1
Assay: protein stability index of a GFP-peptide fusion (GPS, HEK-293T) (PSI 1-6); higher = more stable
Conditions: c terminus: a fixed tail appended
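Also: lentivirally expressed fusions sorted by FACS into six bins by GFP to DsRed ratio, PSI derived from sequencing read proportions per bin multiplied by bin number.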

Row | Variant | protein stability index
1 | TSGKRYVYRFVCDLQNLLGFTPWE [E23W] | 2.88
2 | TSGKRYVYRFVCDLQNLLGFTPQE [E23Q] | 2.63
3 | TSGKRYVYRFVCDLQNLLGFTPNE [E23N] | 2.43
4 | TSGKRYVYRFVCDLQNLLGFTPLE [E23L] | 2.42
5 | TSGKRYVYRFVCDLQNLLGFTPTE [E23T] | 2.17
6 | TSGKRYVYRFVCDLQNLLGFTPSE [E23S] | 2.38
7 | TSGKRYVYRFVCDLQNLLGFTPGE [E23G] | 2.15
8 | TSGKRYVYRFVCDLQNLLGFTPME [E23M] | 2.35
9 | TSGKRYVYRFVCDLQNLLGFTPPE [E23P] | 3.46
10 | TSGKRYVYRFVCDLQNLLGATPEE [F20A] | 2.59
11 | TSGKRYVYRFVCDLQNLLGQTPEE [F20Q] | 2.35
12 | TSGKRYVYRFVCDLQNLLGCTPEE [F20C] | 1.93
13 | TSGKRYVYRFVCDLQNLLGLTPEE [F20L] | 2.17
14 | TSGKRYVYRFVCDLQNLLGETPEE [F20E] | 2
15 | TSGKRYVYRFVCDLQNLLGDTPEE [F20D] | 1.48
16 | TSGKRYVYRFVCDLQNLLGWTPEE [F20W] | 3.05
17 | TSGKRYVYRFVCDLQNLLGVTPEE [F20V] | 1.93
18 | TSGKIYVYRFVCDLQNLLGFTPEE [R5I] | 3.19
19 | TSGKRYVYRFVCDLQNVLGFTPEE [L17V] | 1.91
20 | TSGKRYVYRFVCDLQNFLGFTPEE [L17F] | 2.73
21 | TSGKRYVYRFVCDLQNRLGFTPEE [L17R] | 2.79
22 | TSGKRYVYRFVCDLQNILGFTPEE [L17I] | 2.31
23 | TSGKRYVYRFVCDLQNTLGFTPEE [L17T] | 2.98
24 | TSGKRYVYRFVCDLQNDLGFTPEE [L17D] | 1.92

Row | Variant | protein stability index
25 | TSGKRYVYRFVCDLQNSLGFTPEE [L17S] | 2.12
26 | TSGKRYVYRFVCDLQNNLGFTPEE [L17N] | 2.27
27 | TEGKRYVYRFVCDLQNLLGFTPEE [S2E] | 2.33
28 | TIGKRYVYRFVCDLQNLLGFTPEE [S2I] | 3.22
29 | TAGKRYVYRFVCDLQNLLGFTPEE [S2A] | 1.74
30 | TQGKRYVYRFVCDLQNLLGFTPEE [S2Q] | 1.85
31 | THGKRYVYRFVCDLQNLLGFTPEE [S2H] | 2.62
32 | TWGKRYVYRFVCDLQNLLGFTPEE [S2W] | 4.44
33 | TFGKRYVYRFVCDLQNLLGFTPEE [S2F] | 2.74
34 | TGGKRYVYRFVCDLQNLLGFTPEE [S2G] | 2.02
35 | TRGKRYVYRFVCDLQNLLGFTPEE [S2R] | 1.77
36 | TDGKRYVYRFVCDLQNLLGFTPEE [S2D] | 2.89
37 | TSGKRYVYRFVSDLQNLLGFTPEE [C12S] | 2.9
38 | TSGKRYVYRFVKDLQNLLGFTPEE [C12K] | 2.98
39 | TSGKRYVYRFVGDLQNLLGFTPEE [C12G] | 2.04
40 | TSGKRYVYRFVDDLQNLLGFTPEE [C12D] | 1.72
41 | TSGKRYVYRFVWDLQNLLGFTPEE [C12W] | 2.21
42 | TSGKRYVYRFVNDLQNLLGFTPEE [C12N] | 3.4
43 | TSGKRYVYRFHCDLQNLLGFTPEE [V11H] | 2.07
44 | TSGKRYVYRFQCDLQNLLGFTPEE [V11Q] | 1.94
45 | TSGKRYVYRFKCDLQNLLGFTPEE [V11K] | 2.15
46 | TSGKRYVYRFRCDLQNLLGFTPEE [V11R] | 1.57
47 | TSGKRYVYRFPCDLQNLLGFTPEE [V11P] | 2.85
48 | TSGKRYVYRFSCDLQNLLGFTPEE [V11S] | 2.02

Row | Variant | protein stability index
49 | TSGKRYVYRFMCDLQNLLGFTPEE [V11M] | 2.85
50 | TSGQRYVYRFVCDLQNLLGFTPEE [K4Q] | 1.7
51 | TSGHRYVYRFVCDLQNLLGFTPEE [K4H] | 2.06
52 | TSGVRYVYRFVCDLQNLLGFTPEE [K4V] | 2
53 | TSGTRYVYRFVCDLQNLLGFTPEE [K4T] | 2.17
54 | TSGRRYVYRFVCDLQNLLGFTPEE [K4R] | 3.33
55 | TSGPRYVYRFVCDLQNLLGFTPEE [K4P] | 1.83
56 | TSGIRYVYRFVCDLQNLLGFTPEE [K4I] | 1.36
57 | TSGMRYVYRFVCDLQNLLGFTPEE [K4M] | 1.74
58 | TSGKRYVYRFVCDLQNLLYFTPEE [G19Y] | 2.52
59 | TSGKRYVYRFVCDLQNLLFFTPEE [G19F] | 1.82
60 | TSGKRYVYRFVCDLQNLLCFTPEE [G19C] | 1.32
61 | TSGKRYVYRFVCDLQNLLSFTPEE [G19S] | 2.13
62 | TSGKRYVYRFVCDLQNLLLFTPEE [G19L] | 1.96
63 | TSGKRYVYRFVCDLQNLLWFTPEE [G19W] | 2.65
64 | TSGKRYVYRFVCDLQNLLHFTPEE [G19H] | 1.34
65 | TSGKRYVYRFVCDLQNLLVFTPEE [G19V] | 2.01
66 | TSGKRYVYRFVCDLQNLLGFTPEQ [E24Q] | 1.89
67 | TSGKRYVYRFVCDLQNLLGFTPES [E24S] | 2.21
68 | TSGKRYVYRFVCDLQNLLGFTPEF [E24F] | 2.96
69 | TSGKRYVYRFVCDLQNLLGFTPET [E24T] | 2.71
70 | TSGKRYVYRFVCDLQNLLGFTPEM [E24M] | 1.6
71 | TSGKRYVYREVCDLQNLLGFTPEE [F10E] | 2.75
72 | TSGKRYVYRLVCDLQNLLGFTPEE [F10L] | 1.8

Row | Variant | protein stability index
73 | TSGKRYVYRRVCDLQNLLGFTPEE [F10R] | 3.5
74 | TSGKRYVYRNVCDLQNLLGFTPEE [F10N] | 3.32
75 | TSGKRYKYRFVCDLQNLLGFTPEE [V7K] | 2.3
76 | TSGKRYHYRFVCDLQNLLGFTPEE [V7H] | 2.04
77 | TSGKRYPYRFVCDLQNLLGFTPEE [V7P] | 1.84
78 | TSGKRYSYRFVCDLQNLLGFTPEE [V7S] | 2.83
79 | TSGKRYWYRFVCDLQNLLGFTPEE [V7W] | 2.61
80 | TSGKRYRYRFVCDLQNLLGFTPEE [V7R] | 1.03
81 | TSGKRYLYRFVCDLQNLLGFTPEE [V7L] | 2.22
82 | TSGKRYDYRFVCDLQNLLGFTPEE [V7D] | 1.46
83 | TSGKRYVPRFVCDLQNLLGFTPEE [Y8P] | 2.28
84 | TSGKRYVWRFVCDLQNLLGFTPEE [Y8W] | 2.01
85 | TSGKRYVSRFVCDLQNLLGFTPEE [Y8S] | 2.23
86 | TSGKRYVMRFVCDLQNLLGFTPEE [Y8M] | 2.93
87 | TSGKRYVERFVCDLQNLLGFTPEE [Y8E] | 2.67
88 | TSGKRYVFRFVCDLQNLLGFTPEE [Y8F] | 1.55
89 | TSGKRYVIRFVCDLQNLLGFTPEE [Y8I] | 2.56
90 | TSGKRYVQRFVCDLQNLLGFTPEE [Y8Q] | 2.02
91 | TSGKRYVYRFVCDLQNLLGFPPEE [T21P] | 2.44
92 | TSGKRYVYRFVCDLQNLLGFVPEE [T21V] | 1.62
93 | TSGKRYVYRFVCDLQNLLGFMPEE [T21M] | 2.05
94 | TSGKRYVYRFVCDLQNLLGFQPEE [T21Q] | 1.7
